# Measured values from the DeepSol protein solubility set.
# Test: soluble on expression in E. coli; label from the status in PepcDB or PDB records
row,Sequence,soluble on expression in E. coli
1,PIFEEQPINTIYPEESLEGKVSLNCRARASPFPVYKWRMNNGDVDLTSDRYSMVGGNLVINNPDKQKDAGIYYCLASNNYGMVRSTEATLSFGYLDPFPPEERPEVRVKEGKGMVLLCDPPYHFPDDLSYRWLLNEFPVFITMDKRRFVSQTNGNLYIANVEASDKGNYSCFVSSPSITKSVFSKFIPLIPIPERTTKPYPADIVVQFKDVYALMGQNVTLECFALGNPVPDIRWRKVLEPMPSTAEISTSGAVLKIFNIQLEDEGIYECEAENIRGKDKHQARIYVQAFPEWVEHINDTEVDIGSDLYWPCVATGKPIPTIRWLKNGYAYHKGELRLYDVTFENAGMYQCIAENTYGAIYANAELKILALAPTFEMNPMKKKILAAKGGRVIIECKPKAAPKPKFSWSKGTEWLVNSSRILIWEDGSLEINNITRNDGGIYTCFAENNRGKANSTGTLVITDPTRIILAPINADITVGENATMQCAASFDPALDLTFVWSFNGYVIDFNKENIHYQRNFMLDSNGELLIRNAQLKHAGRYTCTAQTIVDNSSASADLVVRGPPGPPGGLRIEDIRATSVALTWSRGSDNHSPISKYTIQTKTILSDDWKDAKTDPPIIEGNMEAARAVDLIPWMEYEFRVVATNTLGRGEPSIPSNRIKTDGAAPNVAPSDVGGGGGRNRELTITWAPLSREYHYGNNFGYIVAFKPFDGEEWKKVTVTNPDTGRYVHKDETMSPSTAFQVKVKAFNNKGDGPYSLVAVINSAQDAPSEAPTEVGVKVLSSSEISVHWEHVLEKIVESYQIRYWAAHDKEEAANRVQVTSQEYSARLENLLPDTQYFIEVGACNSAGCGPPSDMIEAFTKKAPPSQPPRIISSVRSGSRYIITWDHVVALSNESTVTGYKVLYRPDGQHDGKLYSTHKHSIEVPIPRDGEYVVEVRAHSDGGDGVVSQVKISGAPTLSPSLLGLLLPAFGILVYLEF,soluble
2,MTILFARNIEKGFGDRTLFTLPSLEIQAQDRIGIVGVNGAGKSTLLQILSKEIEADKGIVTHHSSISIIPQISEELPKVASSTAKGKWNISNISNSMSGGERMRLKIAHALEQDAGILFADEPTSHLDMFGTEQLEKALLSYKGALVLISHDREFLDNICTKIIEIEDGIIQEYKGNYSNYRKQKERERTQKQAEYEQYINEKERLEKSILQKKQRASSMTKIPTRFSSSESKLYKLSGANGQEQVSKAAKALETRLEKLEKKEKPKELSQAQFDVQYHTPIHSKVAVQFNKATKKIGDLTLFKNMNGTIAPGAKLAILGANGSGKTTLFNMLLANERGIQLSKSCKIGYFEQTLSILKTDKTILENVLEETNYTESFVRTILARLLFRREDVHKPVHVLSGGERMKVALAKVFLGNYNMLLLDEPTNYLDLATQEELESMLQEYPGTILFISHDRAFIRSVADHILQVDESEPRVFHGNYEQYTNRTADASVNVTAQELLRLQTKLTEIIGRISIPNHHDDITSLEQEYETLLVKIRKCKEAL,not soluble
3,MTDTRASAHLYPAHDLAVCTDAGSAVERITAIYDRSAQAIRARFHAFARGEALDDDTPACYPYLGITVDPKTLVSDARPSWGTVAYPGVYGTTLTRPDLFREYYRVQIERLLHYHNSPVVVGVSNRPIPLPFVVEASTIDITPEQARALGGAFPLPDLAQIDDAIANGTYRPADNEPQPLSMFTAERVDLALQRLYHYTATHPKHFQRFVLFTNYQRYVDEFAALGRKLMEEGNDEGYVRFVEPGDTVHELGTPAPDDSHRIKGLPQMPAYHLVREDRLGVTLVNIGVGPSNAKTITDHLAVLRPHCWMMIGHCGGLRRSQQLGDYVLAHAYVRDDHVLDQDLPPWVPVPPIAEIQVALQEAVARITGLSGSDMKSRMRTGTVVSTDDRNWELKYQALYTRFNQSRAIAIDMESATIAANGFRLRVPYGTLLCVSDKPLHGELKLRGMANLFYRQRVSQHLAIGMEAVRLLRENGVETLHSRKLRSFDEPAFR,soluble
4,ETPAVQVSTNRQAIIINEQTQFKVDAALKNAGIQTDGMFVVDNSLKVRFKDTETQLKARDVIENTLGEGYITALNLLADSPEWMAKIKANPMFLGLDLRGGVHFTMQVDMKAAMQKTFERYSGDIRRELRREKIRSGTVRQAGNSLTVPLQDAGDVQKALPQLRKLFPEATLNSDGSNIVLTLSEEAVNKVCSDAVKQNITTLHNRVNELGVAEPVIQQSGADRIVVQLPGVQDTAKAKDIIGRTATLELRMVEDDPAKLREALEGNVPSGYELLSSGGDRPEILLISKQVELTGDNINDAQPSFDQMGAPAVSLSLDSAGGSIFGELTAANVGKRMAMVLIDQGKSEVVTAPVIRTAITGGRVEISGSMTTAEANDTSLLLRAGSLAAPMQIVEERTIGPSLGKENIEK,not soluble
5,MPATPVPPVTMPPVPPVGFPPVTAPPGLHPPPPVPPVPVPTLPVTSEHKTAHDACIKRLEQLEIPPDPKIYPSPTEPGTFGSVTEVLTNVFGVEVHKTSNFYQYSVHITAELSSKKEVTFTKKGKEDFIVHDRHEKCSAILFHALNRFEDFFKSSENCIIYDGQSILFTSMNLFEGIPTGKIKTKVFQINGADTNLKDLMVLPCIKLEVFPTKNPVVNFSLEDIGRRTSDSNIESVNMAYKQILDLAMSQYAIRETSKCVVFEHGKMFFINPLQEGYAPCDIVEVGDGKQMKPGLKKTLQFIEGPYGRNQNNPSIVIDGMKVAFHMEQLVFQKLSSITSNLANGITGSERERCAAVIKGLDCHSNYRGRTRHHKIESIHHEGAATARFELEGGGTCTVATYFKDKYKIQLRYPNANLIVCKERGALNFYPMELITISPNQRVRITQQTSSQSQRTTKESAVLPDIRQRLIMTGKIAAKITAENEVLGKMGVTVCDEPLVVKGRNLPAIRLASFETGEHLINPRDCKWRPQRYNRSAVAPKVWALYGVGSPGSQMNRDVMRRFCDEFMNMSRSKGILFPPPGDVNLLTPDAIENRLREAANAGCTFVLCITEDNITCLHQKYKFIEHHTQMIVQDMKLSKALSVVNASKKLTLENVINKTNVKLGGSNYVYLDTKNFLQEHLIIGVGISSPPPGTKYIMESRGILNPTIVGFAYNGNGKQEFSGDFVLNAAGQETIAPIEDIVSYSIKGYKKFHDGKAPKRITIYRSGSSEGNHGPIISYEVPLARVAMRNFSPDTQLLYIVVSKEHTYRFFKKESGGSSSGGSNSAGASNSGTLTSAPPKPWELNIGPGLTVDYGVTNPACKQFFLNSHMTLQGSAKTPLYTVLADDRNIGMSALEEFTFNLCHLHQIVGLPTSIPTPLYVANEYAKRGRNLWNEAINANEIPEVTGPESARLKKMTDGISYMGSGDMIDRRVNA,not soluble
6,MAHHHHHHMGTLEAQTQGPGSMQVKLSQERAKELAENASFIASPGKGILAADESTGTIQKRFDNVGVENTEKNRAEYRSILFTTKGLGKYISGCILFEETLFQQAPNGQNMVDLLRAEGILPGIKVDKGLVTIPNTDEEVSTTGLDGLAERCQKYYNAGARFAKWRAVLSIDVKKNKPSNLSILETAHTLARYAAICQENGLVPIVEPEILADGDHSIEVCAEVTERVLAAVFKALNDHKVLLEGALLKPNMVTQGVDCKDKPAPQTVGFLTSRALRRTVPPALPGVMFLSGGQSESMATRHLNEINKCNKHPWSLSFSYGRALQSSVLKTWNGSMSNAAAAQDVLMKLAQQNSEASLGSLKTDLSDDGESLFEAKYIY,soluble
7,MSLSASFTGAGFFKGGKTLDFSKLSYLSNSFMSLPSTVRNKQASQTAKNKSMIEFIEKIQSKNIVVRQEERGIVISLAADAFFDSASADVKLEENRDSIQKIASFIGFLSPRGYNFKIEGHTDNIDTDVNGPWKSNWELSAARSVNMLEHILNYLDQSDVKRIENNFEVSGFGGSRPIATDDTPEGRAYNRRIDILITTDASLSFPKEGHHHHHH,soluble
8,MSLTAPRILMTRPDHYGVTYAINPWMTPESWAGNQTVALAEAATQWQALADALGAVGFALEILPGQPGLPDMVFPANAAIVFDGIALVARFRHPERQGEEAHFHAAFEALRQRGLLSAVHSLPEGVFQEGAGDCLWDASRQLFFAAHGPRSSRASIEVIAETFGQEIVRLELVDPRFYHLDTCFCVLPGGEVLTFTPALSTASLERLRAVVAPEMLIEADFAAASAFSINAVAHGREVVMANPPASLRALLEERGYHVHGLELGRFMQSGGGSYCMTLRLDRRARAEGHHHHHH,soluble
9,MPKRRYNPSANEEEKIPIVEKLYRENQESDFLGGGFCDDDDEVQERREQISEMRQKREEAAHNLIQAPENCEKCDKGLMDSWLWERYNCAVCDACRDDKGEHKLLARTEVKNTYLLKDCDLDLRKPKLRYWAKKNPHNPRYGDMKLYLKCQIETRVLEVHGSWEDLELKKELREQSKEVRSEKRFEKKLKDLRQQIRGTSGVKVDFGRPHTHEFGKETHVEEDTWRRTCITCEYEEVFEKL,not soluble
